# Measured values from patent publication US9266930.
# Where two headings read alike, the source gives them in different places.
# T1: HLA-DR1 (DRB1*0101) (human)
# T1 chain 1: not shown
# T1 chain 2: not shown
# T2: HLA-DR2w2β1 (DRB1*1501) (human)
# T2 chain 1: not shown
# T2 chain 2: not shown
# T3: HLA-DR2w2β2 (DRB5*0101) (human)
# T3 chain 1: not shown
# T3 chain 2: not shown
# T4: HLA-DR3 (DRB1*0301) (human)
# T4 chain 1: not shown
# T4 chain 2: not shown
# T5: HLA-DR4w15 (DRB1*0405) (human)
# T5 chain 1: not shown
# T5 chain 2: not shown
# T6: HLA-DR4w4 (DRB1*0401) (human)
# T6 chain 1: not shown
# T6 chain 2: not shown
# T7: HLA-DR5w11 (DRB1*1101) (human)
# T7 chain 1: not shown
# T7 chain 2: not shown
# T8: HLA-DR6w19 (DRB1*1302) (human)
# T8 chain 1: not shown
# T8 chain 2: not shown
# T9: HLA-DR5w12 (DRB1*1201) (human)
# T9 chain 1: not shown
# T9 chain 2: not shown
# T10: HLA-DR7 (DRB1*0701) (human)
# T10 chain 1: not shown
# T10 chain 2: not shown
# T11: HLA-DR9 (DRB1*0901) (human)
# T11 chain 1: not shown
# T11 chain 2: not shown
# B1: … (P. falciparum EXP 15-mer, core …) (peptide)
# peptide: RHPFKIGSSDPADNA
# modifications: not checked
# B2: … (P. falciparum CSP, position 335) (peptide)
# peptide: NANANNAVK
# modifications: not checked
# B3: … (P. falciparum SSP2 position 504, 9-mer, A3 motif peptide) (peptide)
# peptide: IAGGLALLA
# modifications: not checked
# B4: … (P. falciparum SSP2, position 406, 9 amino acids) (peptide)
# peptide: NLPNDKSDR
# modifications: not checked
# B5: … (P. falciparum SSP2, position 382) (peptide)
# peptide: NPEDDREENF
# modifications: not checked
# B6: … (P. falciparum EXP, position 9) (peptide)
# peptide: LALFFIIFNK
# modifications: not checked
# B7: 1167.18 (peptide)
# peptide: ILSVSSFLFV
# modifications: not checked
# B8: … (P. falciparum SSP2, position 522) (peptide)
# peptide: VPGAATPYA
# modifications: not checked
# B9: … (P. falciparum EXP, position 33, 9 amino acids) (peptide)
# peptide: VSSKKKNKK
# modifications: not checked
# B10: … (Pf SSP2 position 8, 10-mer) (peptide)
# peptide: KYLVIVFLIF
# modifications: not checked
# B11: 1167.61 (peptide)
# peptide: TPYAGEPAPF
# modifications: not checked
# B12: 35.0172 … (Pf SSP2 211) (peptide)
# peptide: KCNLYADSAWENVKN
# modifications: not checked
# B13: … (Pf CSP 17, A11 motif peptide) (peptide)
# peptide: EALFQEYQCY
# modifications: not checked
# B14: … (Pf SSP2 position 528, 9-mer) (peptide)
# peptide: PYAGEPAPF
# modifications: not checked
# B15: … (Pf CSP DR-supermotif 15-mer, core …) (peptide)
# peptide: VFNVVNSSIGLIMVL
# modifications: not checked
# B16: … (P. falciparum EXP 15-mer, core …) (peptide)
# peptide: VFFLALFFIIFNKES
# modifications: not checked
# B17: VPLAMKLI (P. falciparum SSP2, position 69) (peptide)
# peptide: VPLAMKLI
# modifications: not checked
# B18: … (P. falciparum EXP, position 9, 10 amino acids) (peptide)
# peptide: LALFFIIFNK
# modifications: not checked
# B19: … (peptide)
# peptide: SCGVWDEWSPCSVTC
# modifications: not checked
# B20: … (Pf CSP 100, A11 motif peptide) (peptide)
# peptide: EDNEKLRKPK
# modifications: not checked
# B21: … (peptide)
# peptide: QSQDNNGNR
# modifications: not checked
# B22: 19.0051 (peptide)
# peptide: LPYGRTNL
# modifications: not checked
# B23: … (peptide)
# peptide: YADSAWENVK
# modifications: not checked
# What was measured:
# [1] = biological target: T1, HLA-DR1 (DRB1*0101) (human); test: inhibition of 125I-probe peptide binding to purified HLA-DR, gel filtration
# [2] = biological target: T2, HLA-DR2w2β1 (DRB1*1501) (human); test: as above
# [3] = biological target: T3, HLA-DR2w2β2 (DRB5*0101) (human); test: as above
# [4] = biological target: T4, HLA-DR3 (DRB1*0301) (human); test: as above
# [5] = biological target: T5, HLA-DR4w15 (DRB1*0405) (human); test: as above
# [6] = biological target: T6, HLA-DR4w4 (DRB1*0401) (human); test: as above
# [7] = biological target: T7, HLA-DR5w11 (DRB1*1101) (human); test: as above
# HLA-A*3101 (human) [8] = biological target: HLA-A*3101 (human)
# HLA-A*6801 (human) [9] = biological target: HLA-A*6801 (human)
# HLA-A*0301 (human) [10] = biological target: HLA-A*0301 (human)
# HLA-A*0301 (human) [11] = biological target: HLA-A*0301 (human); remark: listed apart in the source
# HLA-A*1101 (human) [12] = biological target: HLA-A*1101 (human)
# HLA-B*0702 (Human) [13] = biological target: HLA-B*0702 (Human)
# HLA-A*0301 (human) [14] = biological target: HLA-A*0301 (human); remark: listed apart in the source
# HLA-A*0203 (human) = test: competition with 125I probe peptide for purified HLA, gel filtration
# HLA-A*6802 (human) = test: as above
# HLA-B*0702 (Human) [15] = biological target: HLA-B*0702 (Human); remark: listed apart in the source
# HLA-A*0301 (human) [16] = test: competition with 125I-labeled probe peptide for purified HLA, gel filtration
# HLA-A*1101 (human) [17] = test: as above
# HLA-A*3301 (human) [18] = test: as above
# HLA-A*6801 (human) [19] = test: as above
# [20] = biological target: HLA-A*2401 (as the column head of Table X prints it), purified HLA class I molecule (human); test: competition with 125I-labelled standard peptide for purified HLA, gel filtration
# HLA-B*0702 (human) [21] = test: competition with 125I probe peptide for purified HLA, gel filtration
# HLA-B*5401 (human) = test: as above
# [22] = biological target: T1, HLA-DR1 (DRB1*0101) (human)
# [23] = biological target: T4, HLA-DR3 (DRB1*0301) (human)
# [24] = biological target: T8, HLA-DR6w19 (DRB1*1302) (human)
# HLA-A*1101 (Human) [25] = test: competition with 125I-labelled probe peptide for purified HLA-A*1101
# [26] = biological target: T9, HLA-DR5w12 (DRB1*1201) (human)
# [27] = biological target: T8, HLA-DR6w19 (DRB1*1302) (human)
# [28] = biological target: T10, HLA-DR7 (DRB1*0701) (human)
# [29] = biological target: T11, HLA-DR9 (DRB1*0901) (human)
# [30] = biological target: T1, HLA-DR1 (DRB1*0101) (human)
# [31] = biological target: T2, HLA-DR2w2β1 (DRB1*1501) (human)
# [32] = biological target: T3, HLA-DR2w2β2 (DRB5*0101) (human)
# [33] = biological target: T4, HLA-DR3 (DRB1*0301) (human)
# [34] = biological target: T5, HLA-DR4w15 (DRB1*0405) (human)
# [35] = biological target: T6, HLA-DR4w4 (DRB1*0401) (human)
# [36] = biological target: T7, HLA-DR5w11 (DRB1*1101) (human)
# HLA-A*3101 (human) [37] = test: competition with 125I-labeled probe peptide for purified HLA, gel filtration
# [38] = biological target: HLA-DR1 (DRB1*0101) (human); test: competition with 125I-labeled probe peptide on purified HLA-DR, gel filtration
# [39] = biological target: HLA-DR2w2β2 (DRB5*0101) (human); test: as above
# [40] = biological target: HLA-DR4w15 (DRB1*0405) (human); test: as above
# [41] = biological target: T6, HLA-DR4w4 (DRB1*0401) (human); test: as above
# [42] = biological target: HLA-DR5w11 (DRB1*1101) (human); test: as above
# HLA-A*0301 (human) [43] = test: competition with 125I-labelled standard peptide for purified HLA, gel filtration
# HLA-A*1101 (human) [44] = test: as above
# HLA-A*3101 (human) [45] = test: as above
# HLA-A*3301 (human) [46] = test: as above
# HLA-B*3501 (human) = test: competition with 125I probe peptide for purified HLA, gel filtration
# HLA-A*6801 (human) [47] = test: competition with 125I-labelled standard peptide for purified HLA, gel filtration
binder,measurement,setting,value
B1,binding affinity ratio (relative binding) (ratio to standard peptide),[1],0.0044
same,binding affinity ratio (relative binding) (ratio to standard peptide),[2],-0.0004
same,binding affinity ratio (relative binding) (ratio to standard peptide),[3],-0.0005
same,binding affinity ratio (relative binding) (ratio to standard peptide),[4],-0.0008
same,binding affinity ratio (relative binding) (ratio to standard peptide),[5],0.0029
same,binding affinity ratio (relative binding) (ratio to standard peptide),[6],0.47
same,binding affinity ratio (relative binding) (ratio to standard peptide),[7],0.0056
B2,binding affinity ratio (IC50 of standard peptide / IC50 of test peptide),HLA-A*3101 (human) [8],0.0006
same,binding affinity ratio (IC50 of standard peptide / IC50 of test peptide),HLA-A*6801 (human) [9],0.021
B3,binding affinity ratio (IC50 of standard peptide / IC50 of test peptide),HLA-A*0301 (human) [10],0.0002
B4,binding affinity ratio (relative to standard peptide),HLA-A*0301 (human) [11],0.0005
same,binding affinity ratio (relative to standard peptide),HLA-A*1101 (human) [12],0.0002
B5,binding affinity ratio (IC50 of standard peptide / IC50 of test peptide),HLA-B*0702 (Human) [13],0.0001
B6,binding affinity ratio (IC50 of standard peptide / IC50 of test peptide),HLA-A*0301 (human) [14],0.014
B7,IC50,HLA-A*0203 (human),19 nM
same,IC50,HLA-A*6802 (human),2100 nM
B8,binding affinity ratio (IC50 of standard peptide / IC50 of test peptide),HLA-B*0702 (Human) [15],0.0001
B9,binding affinity ratio (relative to standard peptide),HLA-A*0301 (human) [16]; scale: ratio,0.0001
same,binding affinity ratio (relative to standard peptide),HLA-A*1101 (human) [17]; scale: ratio,0.0002
same,binding affinity ratio (relative to standard peptide),HLA-A*3301 (human) [18]; scale: ratio,0.001
same,binding affinity ratio (relative to standard peptide),HLA-A*6801 (human) [19]; scale: ratio,0.0002
B10,binding affinity ratio (IC50 of standard peptide / IC50 of test peptide),[20],0.0003
B11,IC50,HLA-B*0702 (human) [21],31 nM
same,IC50,HLA-B*5401 (human),25000 nM
B12,IC50,[22],23400 nM
same,IC50,[23],857 nM
same,IC50,[24],11100 nM
B13,binding affinity ratio (IC50 of standard peptide / IC50 of test peptide),HLA-A*1101 (Human) [25],0.0002
B14,binding affinity ratio (IC50 of standard peptide / IC50 of test peptide),[20],0.037
B15,binding affinity ratio (relative to standard peptide),[26],0.0015
same,binding affinity ratio (relative to standard peptide),[27],0.26
same,binding affinity ratio (relative to standard peptide),[28],0.18
same,binding affinity ratio (relative to standard peptide),[29],0.5
B16,binding affinity ratio (relative binding) (ratio to standard peptide),[30],0.0006
same,binding affinity ratio (relative binding) (ratio to standard peptide),[31],0.018
same,binding affinity ratio (relative binding) (ratio to standard peptide),[32],-0.0021
same,binding affinity ratio (relative binding) (ratio to standard peptide),[33],-0.0043
same,binding affinity ratio (relative binding) (ratio to standard peptide),[34],0.01
same,binding affinity ratio (relative binding) (ratio to standard peptide),[35],0.0047
same,binding affinity ratio (relative binding) (ratio to standard peptide),[36],-0.0005
B17,binding affinity ratio (IC50 of standard peptide / IC50 of test peptide),HLA-B*0702 (Human) [13],0.0001
B18,binding affinity ratio (relative to standard peptide),HLA-A*0301 (human) [16],0.014
same,binding affinity ratio (relative to standard peptide),HLA-A*1101 (human) [17],0.053
same,binding affinity ratio (relative to standard peptide),HLA-A*3101 (human) [37],0.0072
same,binding affinity ratio (relative to standard peptide),HLA-A*3301 (human) [18],0.0076
same,binding affinity ratio (relative to standard peptide),HLA-A*6801 (human) [19],0.0039
B19,binding affinity ratio (IC50 standard peptide / IC50 test peptide),[38],0.0001
same,binding affinity ratio (IC50 standard peptide / IC50 test peptide),[39],-0.0005
same,binding affinity ratio (IC50 standard peptide / IC50 test peptide),[40],-0.0009
same,binding affinity ratio (IC50 standard peptide / IC50 test peptide),[41],-0.0009
same,binding affinity ratio (IC50 standard peptide / IC50 test peptide),[42],-0.0002
B20,binding affinity ratio (IC50 of standard peptide / IC50 of test peptide),HLA-A*1101 (Human) [25],0.0002
B21,binding affinity ratio (IC50 of standard peptide / IC50 of test peptide),HLA-A*0301 (human) [43],0.0005
same,binding affinity ratio (IC50 of standard peptide / IC50 of test peptide),HLA-A*1101 (human) [44],0.0002
same,binding affinity ratio (IC50 of standard peptide / IC50 of test peptide),HLA-A*3101 (human) [45],0.002
same,binding affinity ratio (IC50 of standard peptide / IC50 of test peptide),HLA-A*3301 (human) [46],0.0093
B22,IC50,HLA-B*3501 (human),> 30000 nM
B23,binding affinity ratio (IC50 of standard peptide / IC50 of test peptide),HLA-A*1101 (human) [44],0.0002
same,binding affinity ratio (IC50 of standard peptide / IC50 of test peptide),HLA-A*3101 (human) [45],0.0009
same,binding affinity ratio (IC50 of standard peptide / IC50 of test peptide),HLA-A*3301 (human) [46],0.0009
same,binding affinity ratio (IC50 of standard peptide / IC50 of test peptide),HLA-A*6801 (human) [47],0.0077
